# From patent US20180346602A1
# Substitutions are numbered along the chain they refer to.
# B1: anti-variant (human) Fc-region antibody M1.3.17 (antibody, V domains shown)
# VH: EVKLLESGGGLVQPGGSLKLSCAASGIDFRRYWMNWVRQAPGKGLEWIGEIDPDSSTINYTPSLKDKFIISRDNAKNTMYLQMRKVRSEDTALYYCARPYDYGAWFAYWGQGTLVTVSA
# VL: QAVVTQESALTTSPGETVTLTCRSTTGAVTTSNYANWVQEKPDHLFTGLIGGTNKRAPGVPARFSGSLIGDKAALTITGAQTEDEAIYFCALWYSDHWVFGGGTKLTVL
# B2: anti-AAA variant Fc-region antibody M1.6.22 (antibody, V domains shown)
# VH: EVQLVESGGDLVKPGGSLKLSCAASGFTFSSYGMSWVRQTPDKRLEWVATISSGGSYIYYPDSVKGRFTISRDNAKNTLYLQMSSLKSEDTAMYYCARLGMITTGYAMDYWGQGTSVTVSS
# VL: DVLMTQTPLSLPVSLGDQASISCRSSQTIVHSTGHTYLEWFLQKPGQSPKLLIYKVSNRFSGVPDRFSGSGSGTDFTLKISRVEAEDLGVYYCFQGSHVPYTFGGGTKLEIK
# B3: anti-variant (human) Fc-region antibody M1.7.24 (antibody, V domains shown)
# VH: B1 VH with I27F, R30S, D52T, M79L, R84I, A97V, Y108S
# VL: B1 VL with T25S, D96N
# Target: anti-VEGF/ANG2 antibody (IgG1 subclass with mutations P329G/L234A/L235A/I253A/H310A/H435A) [IgG part: P01857]
# Assay: sandwich ELISA assay A; capture M1.7.10-Bi; antibody 1 at 3 ng/mL
row,Binder,signal [OD405 nm]
1,B1,0.038
2,B2,0.057
3,B3,0.046

# Target: anti-IGF-1R antibody (IgG1 subclass with mutations I253A/H310A/H435A) [IgG part: P01857]
# Assay: sandwich ELISA assay A; capture M1.7.10-Bi; antibody 3 at 3 ng/mL
row,Binder,signal [OD405 nm]
1,B1,0.036
2,B2,0.414
3,B3,0.045

# Target: anti-P-Selectin antibody (IgG4 subclass with mutations S228P/L235E) [IgG part: P01861]
# Assay: sandwich ELISA assay A; capture M1.7.10-Bi; antibody 4 at 3 ng/mL
row,Binder,signal [OD405 nm]
1,B1,0.033
2,B2,0.037
3,B3,0.04

# Target: anti-P-Selectin antibody (IgG4 subclass with mutations S228P/L235E) [IgG part: P01861]
# Assay: sandwich ELISA assay A; capture M1.7.10-Bi; antibody 4 at 6 ng/mL
row,Binder,signal [OD405 nm]
1,B1,0.036
2,B2,0.041
3,B3,0.045

# Target: anti-VEGF/ANG2 antibody (wild-type IgG1 subclass) [IgG part: P01857]
# Assay: sandwich ELISA assay A; capture M1.7.10-Bi; antibody 5 at 3 ng/mL
row,Binder,signal [OD405 nm]
1,B1,0.033
2,B2,0.039
3,B3,0.038

# Target: anti-VEGF/ANG2 antibody (IgG1 subclass with mutations P329G/L234A/L235A/I253A/H310A/H435A) [IgG part: P01857]
# Assay: sandwich ELISA assay A; capture M1.7.10-Bi; antibody 1 at 25 ng/mL
row,Binder,signal [OD405 nm]
1,B1,0.04
2,B2,0.061
3,B3,0.047

# Target: anti-VEGF/ANG2 antibody (IgG1 subclass with mutations P329G/L234A/L235A) [IgG part: P01857]
# Assay: sandwich ELISA assay A; capture M1.7.10-Bi; antibody 2 at 25 ng/mL
row,Binder,signal [OD405 nm]
1,B1,2.93
2,B2,0.06
3,B3,2.61

# Target: anti-VEGF/ANG2 antibody (IgG1 subclass with mutations P329G/L234A/L235A) [IgG part: P01857]
# Assay: sandwich ELISA assay A; capture M1.7.10-Bi; antibody 2 at 50 ng/mL
row,Binder,signal [OD405 nm]
1,B1,2.96
2,B2,0.065
3,B3,2.6

# Target: anti-IGF-1R antibody (IgG1 subclass with mutations I253A/H310A/H435A) [IgG part: P01857]
# Assay: sandwich ELISA assay A; capture M1.7.10-Bi; antibody 3 at 25 ng/mL
row,Binder,signal [OD405 nm]
1,B1,0.043
2,B2,2.51
3,B3,0.047

# Target: anti-P-Selectin antibody (IgG4 subclass with mutations S228P/L235E) [IgG part: P01861]
# Assay: sandwich ELISA assay A; capture M1.7.10-Bi; antibody 4 at 13 ng/mL
row,Binder,signal [OD405 nm]
1,B1,0.038
2,B2,0.05
3,B3,0.046

# Target: anti-VEGF/ANG2 antibody (IgG1 subclass with mutations P329G/L234A/L235A) [IgG part: P01857]
# Assay: sandwich ELISA assay A; capture M1.7.10-Bi; antibody 2 at 100 ng/mL
row,Binder,signal [OD405 nm]
1,B1,3.04
2,B2,0.076
3,B3,2.65

# Target: anti-VEGF/ANG2 antibody (wild-type IgG1 subclass) [IgG part: P01857]
# Assay: sandwich ELISA assay A; capture M1.7.10-Bi; antibody 5 at 100 ng/mL
row,Binder,signal [OD405 nm]
1,B1,0.042
2,B2,0.056
3,B3,0.042

# Target: anti-VEGF/ANG2 antibody (IgG1 subclass with mutations P329G/L234A/L235A/I253A/H310A/H435A) [IgG part: P01857]
# Assay: sandwich ELISA assay A; capture M1.7.10-Bi; antibody 1 at 0 ng/mL (blank)
row,Binder,signal [OD405 nm]
1,B1,0.044
2,B2,0.058
3,B3,0.05

# Target: anti-VEGF/ANG2 antibody (IgG1 subclass with mutations P329G/L234A/L235A) [IgG part: P01857]
# Assay: sandwich ELISA assay A; capture M1.7.10-Bi; antibody 2 at 0 ng/mL (blank)
row,Binder,signal [OD405 nm]
1,B1,0.042
2,B2,0.048
3,B3,0.043

# Target: anti-IGF-1R antibody (IgG1 subclass with mutations I253A/H310A/H435A) [IgG part: P01857]
# Assay: sandwich ELISA assay A; capture M1.7.10-Bi; antibody 3 at 0 ng/mL (blank)
row,Binder,signal [OD405 nm]
1,B1,0.04
2,B2,0.046
3,B3,0.049

# Target: anti-VEGF/ANG2 antibody (wild-type IgG1 subclass) [IgG part: P01857]
# Assay: sandwich ELISA assay A; capture M1.7.10-Bi; antibody 5 at 0 ng/mL (blank)
row,Binder,signal [OD405 nm]
1,B1,0.036
2,B2,0.042
3,B3,0.041

# Target: anti-IGF-1R antibody (IgG1 subclass with mutations I253A/H310A/H435A) (human) [IgG part: P01857]
# Assay: sandwich ELISA assay C; capture on SA plate; tracer FcγRI-Dig; analyte 6 ng/mL
row,Binder,signal [OD405 nm]
1,B1,1.21
2,B2,0.104
3,B3,0.069

# Target: anti-P-Selectin antibody (IgG4 subclass with mutations S228P/L235E) (human) [IgG part: P01861]
# Assay: as above
row,Binder,signal [OD405 nm]
1,B1,1.18
2,B2,0.051
3,B3,0.053

# Target: anti-VEGF/ANG2 antibody (IgG1 subclass with mutations P329G/L234A/L235A) (human) [IgG part: P01857]
# Assay: as above
row,Binder,signal [OD405 nm]
1,B1,1.22
2,B2,0.06
3,B3,0.06

# Target: anti-VEGF/ANG2 antibody (IgG1 subclass with mutations P329G/L234A/L235A/I253A/H310A/H435A) (human) [IgG part: P01857]
# Assay: as above
row,Binder,signal [OD405 nm]
1,B1,1.17
2,B2,0.06
3,B3,0.079

# Target: anti-P-Selectin antibody (IgG4 subclass with mutations S228P/L235E) (human) [IgG part: P01861]
# Assay: sandwich ELISA assay C; capture on SA plate; tracer FcγRI-Dig; analyte 13 ng/mL
row,Binder,signal [OD405 nm]
1,B1,1.16
2,B2,0.052
3,B3,0.066

# Target: anti-IGF-1R antibody (IgG1 subclass with mutations I253A/H310A/H435A) (human) [IgG part: P01857]
# Assay: sandwich ELISA assay C; capture on SA plate; tracer FcγRI-Dig; analyte 0 ng/mL (blank)
row,Binder,signal [OD405 nm]
1,B1,1.22
2,B2,0.069
3,B3,0.086

# Target: anti-P-Selectin antibody (IgG4 subclass with mutations S228P/L235E) (human) [IgG part: P01861]
# Assay: as above
row,Binder,signal [OD405 nm]
1,B1,1.19
2,B2,0.077
3,B3,0.076

# Target: anti-VEGF/ANG2 antibody (IgG1 subclass with mutations P329G/L234A/L235A) (human) [IgG part: P01857]
# Assay: as above
row,Binder,signal [OD405 nm]
1,B1,1.23
2,B2,0.064
3,B3,0.092

# Target: anti-VEGF/ANG2 antibody (IgG1 subclass with mutations P329G/L234A/L235A/I253A/H310A/H435A) (human) [IgG part: P01857]
# Assay: as above
row,Binder,signal [OD405 nm]
1,B1,1.18
2,B2,0.077
3,B3,0.076
